Assay results as given in article PMC4849472 (Cell Discovery, 2016).

What was measured:
Settings in all cases: both partners purified
Hsp90 [1] = target: T1, Hsp90 (human, UniProt P07900 1-732); assay: native MS; p23 added to the client-transfer complex without immunophilin, with ATP; MS/MS (collision-induced dissociation) of the isolated 32+ charge state of (Hsp90)2(p23)2(GR)1
Hsp90 [2] = target: T1, Hsp90; assay: native MS; as a8, then stoichiometric p23 added (300 μM ATP magnesium acetate, a further 15 min)
Hsp90 [3] = target: T1, Hsp90; assay: native MS; (Hsp70)2, GR, Hop and (Hsp90)2 all at 0.5 μM with Hsp40 and excess ATP; then an equimolar ratio of FKBP52 added to the formed complex
Hsp90 [4] = target: T1, Hsp90; assay: native MS; Hsp90_(2) 3 μM with FKBP51 and FKBP52 in twofold molar excess (6 μM), the highest concentrations studied
[5] = target: client-transfer complex (Hsp90)2(Hop)1(Hsp70)2(GR)1 (human, UniProt P07900 1-732; P31948 1-543; P0DMV8 1-641; P04150 521-777, F602S); assay: native MS; (Hsp70)2, GR, Hop and (Hsp90)2 all at 0.5 μM with Hsp40 and excess ATP; then an equimolar ratio of FKBP52 added to the formed complex
Hsp90 [6] = target: T1, Hsp90; assay: native MS; as a12 (Hsp90/Hsp70/Hop/GR/Hsp40/p23/FKBP51), then challenged with excess FKBP52
Hsp90 [7] = target: T1, Hsp90; assay: native MS; competition: Hsp90_(2) with Hop, FKBP51 and FKBP52, all at equimolar concentration (3 μM)
Hsp90 [8] = target: T1, Hsp90; assay: native MS; Hsp90_(2) 1 μM with 2 μM of both FKBP51 and FKBP52

B1: p23 (natural protein, human, UniProt Q15185 1-160, looked up)
chain: MQPASAKWYDRRDYVFIEFCVEDSKDVNVNFEKSKLTFSCLGGSDNFKHLNEIDLFHCIDPNDSKHKRTDRSILCCLRKGESGQSWPRLTKERAKLNWLSVDFNNWKDWEDDSDEDMSNFDRFSEMMNNMGGDEDVDLPEVDGADDDSQDSDDEKMPDLE
notes: p23 co-chaperone, human; source: provided by Sophie Jackson and David Agard's labs; expressed and purified as previously described [33]
Hsp90 [1]
  stoichiometry N: 2 per Hsp90 dimer
Hsp90 [2]
  stoichiometry N: 1 per Hsp90 dimer

B2: glucocorticoid receptor ligand-binding domain (residues 521-777, F602S) (domain or fragment, human, UniProt P04150 521-777, looked up)
chain: VPATLPQLTPTLVSLLEVIEPEVLYAGYDSSVPDSTWRIMTTLNMLGGRQVIAAVKWAKAIPGFRNLHLDDQMTLLQYSWMSLMAFALGWRSYRQSSANLLCFAPDLIINEQRMTLPCMYDQCKHMLYVSSELHRLQVSYEEYLCMKTLLLLSSVPKDGLKSQELFDEIRMTYIKELGKAIVKREGNSSQNWQRFYQLTKLLDSMHEVVENLLNYCFQTFLDKTMSIEFPEMLAEIITNQIPKYSNGNIKKLLFHQK
notes: Used without ligand; also called GR; source: provided by Sophie Jackson and David Agard's labs; expressed and purified as previously described [33]
Hsp90 [3]
  stoichiometry N: 1 per Hsp90 dimer

B3: FKBP52 (natural protein, human, UniProt Q02790 1-459, looked up)
chain: MTAEEMKATESGAQSAPLPMEGVDISPKQDEGVLKVIKREGTGTEMPMIGDRVFVHYTGWLLDGTKFDSSLDRKDKFSFDLGKGEVIKAWDIAIATMKVGEVCHITCKPEYAYGSAGSPPKIPPNATLVFEVELFEFKGEDLTEEEDGGIIRRIQTRGEGYAKPNEGAIVEVALEGYYKDKLFDQRELRFEIGEGENLDLPYGLERAIQRMEKGEHSIVYLKPSYAFGSVGKEKFQIPPNAELKYELHLKSFEKAKESWEMNSEEKLEQSTIVKERGTVYFKEGKYKQALLQYKKIVSWLEYESSFSNEEAQKAQALRLASHLNLAMCHLKLQAFSAAIESCNKALELDSNNEKGLFRRGEAHLAVNDFELARADFQKVLQLYPNNKAAKTQLAVCQQRIRRQLAREKKLYANMFERLAEEENKAKAEASSGDHPTDTEMKEEQKSNTAGSQSQVETEA
notes: FKBP52, human immunophilin; The cited PDB entries hold overlapping segments of FKBP52, not the construct used here; source: provided by Sophie Jackson and David Agard's labs; expressed and purified as previously described [33]
Hsp90 [4]
  stoichiometry N: ≤ 2 per Hsp90 monomer
[5]
  stoichiometry N: 1 per client-transfer complex
Hsp90 [6]
  stoichiometry N: 1 per Hsp90 monomer
Hsp90 [7]
  stoichiometry N: 1 per Hsp90 dimer
Hsp90 [8]
  stoichiometry N: ≤ 2 per Hsp90 dimer
